Patent publication US20230066984A1, “New Carbon Glycoside Glycosyltransferase and Use Thereof” (CAS Center for Excellence in Molecular Plant Sciences, priority 2020, published 2023)

B1: PpCGT1: C-glycosyltransferase from high knot bamboo, SEQ ID NO: 3 (protein, listed as Phyllostachys prominens)
chain: MPTSGSRTGGRPHVILLPSAGMGHLVPFSRLAVALSSGHGCDVSVVAVLPTVSAAESRHLQGLLDASPAVRRLDLHLAPFDESEFPGADPFFLRFEAMRRSAPLLGPLLADTGESALVTDIALASVVIPVAKEIHLPCYVLFTASAAMLSFCAYFPTYLDTNAGRVVGDVDIPGVYRIPKASIPQALHDRNHLFTRQFVANGQDLAKADGVLVNTFDALELEAVTALRQGSVAAGFPPVFSVGPLVTVNLPAGEAAKESGNDYMYWLDAQPARSVVYVSFGSRKAISRNQVRELAVGLEASGQRFLWVVKSTVVDRDDSAELSELLDEGFLERVQGRGLVTKAWVEQEEVLKHESIGLFISHCGWNSVTEAAASGVPVLAWPRFGDQRVNAGVVARGGLGVWVERWSWEGEEGVVSGEEIAEKVKAVMADETVRKKAASVGEAAVKEFADGGTSYRSLTEFVRRCRDLAVLD
B2: SbCGT2: C-glycosyltransferase from Sorghum, SEQ ID NO: 7 (protein)
chain: MAPSAMPASGDHTGATPHVVLLPSAGMGHLVPFARLAVALSEGHGCDVSFAAVLPTVSSAESRHLRALFAAAPAVRRLDFRLAPFDESQFPGADPFFLRFEALRRSAPLLGPLLDAAQASALVTDIVLASVVLPVAKARGVPCYVLFTSSAAMLSLCAYFPAHLDANAAAGGGRLGVGDVDIPGVYRIPKSSVPQALHDPKHLFTQQFVANGRGLVAADGILVNTFDAFEPDAITALRQGSVVSDFPPVFAVGPLQPVRFQVAEKPAHYMRWLSAQPARSVVYVSFGSRKAISTDQLRELAAGLEASGQRFLWVVKSTVVDRDDAADLADLLGDGFLERVQGRAFVTKGWVEQEEILQHGSVGLFISHCGWNSVTEAAAFGVPVLAWPRFGDQRVNAAVVARGGLGAWEERWTWDGEKGLVTGEEVAEKINAVVGNDVVARKAARVGDAAAAAAGKGGTSYQSLADFVGRCRDAGW
modifications: Sorghum bicolor
B3: PhCGT2: C-glycosyltransferase from moso bamboo, SEQ ID NO: 4 (protein, listed as Phyllostachys edulis)
chain: MASRAMPSSSDRTGGAPRVVLLPSAGMGHLVPFGRLAVALSSGHACDVSVVTVLPTVSSAESKHLQGLFDAFPAVRRLDLHLAPFDASEFSDADPFYVRYEAVRRSAPLLGPLLADADASALVADIALASVVIPVAKELLIPCYIFFTASATMFSLLAYFPTYLHSNAGHSIGDVDVPGVYRIPMSSIPQALHDPNNLFTQQFVANGRSLAEADGLLVNTFDAFEPEAVTALRHGTVAPGFPPVFALGPLSPVGFPAGEAARESGNYTTWLDAQPARSVVYVSFGSRKALLRDQLSELAAGLEASGCRFLWVVKGTVVDRDDDRELRELLGEVFLQRVNGRALVTKAWVEQEEVLKHPAVGLFISHCGWNSVTEATVSGVPVLAWPRFADQRVSAGVVARRGLGVWVERWSWEGEERVVTGDEIAEKVKSVLADETLRKNSTMVREAAAAAVATGGTSYRSLAKFVRRCST
B4: SiCGT2: C-glycosyltransferase from millet, SEQ ID NO: 18 (protein, listed as Setaria italica)
chain: MSSPPPPNSTSDDCQGTAATPHIVLFPSAGMGHLVPFTRLAVALSAGHCCDVSLVTALPTVSSAESCHIAALFAAFPAVRRLDLRLAPLDASSEFPGADPFYVRYEALRRSTPLLLGPLLAGASASALVADIALASVAIPVARELRVPCYVFFTASATMLSFKAYFPTYLDANGGAGHSVGDVDVPGVCRVPRSSIPQALHDPDDIFTRQFVANGRALVAADGLLVNAFEAMEPEAVAALLGGSVVASLPPVFAVGPLMPLNLREAAEEQGNYRAWLDAQPPRSVVYVSFGSRKALARDQIRELAAWLEACGHRFLWVVKGAVVDRDDACELSDLLGEGFQRRVEGRGLVTKSWVEQDEVLRHPAVGLFVSHCGWNSVTEAAANGVPVLAWPRFADQRVNARVVARAGFGVWVERWSWEGEEAVVGAEEIAEQVVAAMGDQAVAEKAASVRDEAARAVADGGTSQQSLAEFVRRCRGGLAGPGTDLGRTWTARG
B5: OsCGT2: C-glycosyltransferase from Japonica rice, SEQ ID NO: 5 (protein)
chain: MCSAATPNSGDVRATPGSSRPHVVLLPSAGMGHLVPFTRLAAALCSGHGCDVSLVAAVPTVSSAEARHLAAHFTAFPAVRRLELDLASLDVSEFAGADPFYVRYEAIRRSASLLAPLLAGGASAAASALVADIALASVVIPVAKDLRLPCYVFFTASATMFSFLAYLPTYLDANAGGGHAIGDVDVPGVCRVPTSSVPQALHDPDDIFTRQFIANARSLANADGLVVNAFDALEPEAVAALRQGTVAAGLPPVFAVGPLSPAPIPAKDSGSYLPWLDAQPARSVVYVSFGSRKALPRDQLSELAAGLEASGHRFLWVVKGAVVDRDDAGELTDLLGEAFLQRIHGRGLVTMAWVRQEEVLNHPSVGLFISHCGWNSVTEAAASGVPVVAWPRFADQRVNAGVVARAGIGVWVDTWSWEGEDDGVVSAEDIAGKVRSAMADEGVRKAAASVREAAARAVAAGGSSYRSLAELVRRCRDGLVITNGM
modifications: Oryza Sativa japonica
B6: OsCGT: C-glycosyltransferase from Japonica rice, SEQ ID NO: 19 (protein)
chain: MPSSGDAAGRRPHVVLIPSAGMGHLVPFGRLAVALSSGHGCDVSLVTVLPTVSTAESKHLDALFDAFPAVRRLDFELAPFDASEFPSADPFFLRFEAMRRSAPLLGPLLTGAGASALATDIALTSVVIPVAKEQGLPCHILFTASAAMLSLCAYFPTYLDANAGDGGGVGDVDIPGVYRIPKASIPQALHDPNHLFTRQFVANGRSLTSAAGILVNTFDALEPEAVAALQQGKVASGFPPVFAVGPLLPASNQAKDPQANYMEWLDAQPARSVVYVSFGSRKAISGEQLRELAAGLETSGHRFLWVVKSTVVDRDDAAELGELLGEGFLKRVEKRGLVTKAWVDQEEVLKHESVALFVSHCGWNSVTEAAASGVPVLALPRFGDQRVNSGVVARAGLGVWADTWSWEGEAGVIGAEEISEKVKAAMADEALRRKAASLAKAAAKAVAGGGSSHRCLVEFARLCQGGTCRTN
modifications: Oryza Sativa japonica
B7: ZmCGT: C-glycosyltransferase from maize, SEQ ID NO: 20 (protein)
chain: MAANGGDHTSARPHVVLLPSAGMGHLVPFARLAVALSEGHGCNVSVAAVQPTVSSAESRLLDALFVAAAPAVRRLDFRLAPFDESEFPGADPFFLRFEATRRSAPLLGPLLDAAEASALVTDIVLASVALPVARERGVPCYVLFTSSAAMLSLCAYFPAYLDAHAAAGSVGVGVGNVDIPGVFRIPKSSVPQALHDPDHLFTQQFVANGRCLVACDGILVNTFDAFEPDAVTALRQGSITVSGGFPPVFTVGPMLPVRFQAEETADYMRWLSAQPPRSVVYVSFGSRKAIPRDQLRELAAGLEASGKRFLWVVKSTIVDRDDTADLGGLLGDGFLERVQGRAFVTMGWVEQEEILQHGSVGLFISHCGWNSLTEAAAFGVPVLAWPRFGDQRVNAALVARSGLGAWEEGWTWDGEEGLTTRKEVAKKIKGMMGYDAVAEKAAKVGDAAAAAIAKCGTSYQSLEEFVQRCRDAERK
modifications: Zea mays
B8: SbCGT1: C-glycosyltransferase from Sorghum, SEQ ID NO: 6 (protein)
chain: MAPPATKSLGELDGGARPHVMFIPSAGMGHLLPFFRVIAALAAHDVVDISVVTVLPTVSAAEADHFASLFAALPRVSRVDFHLLPFDASSEFPGHDPFLLRWEALRRSAHLFRPLIAGAAGPRVSAVVTDVTLTSHVIPIAKELGVQCHVLFVSCATMLSLAAYTPVHLDKKNKGEHGPGVGVGVGVGDVDIPGVRRIPQSYLPQPLLDLNKLFTKQFIDNGREIINADGFLVNTFDALEPVALAALRDGKVVAGFPPVYAIGPLRSKEEEATTGSPPVAWLDEQPARSVVYVAFGNRNAVSLEQIREIAAGLEASGCRFLWVLKTTTVDRDDTAELTDDVLGEGFLERVQGRGLVTKAWVDQEAVLKHASVGLFLSHSGWNSVTEAAAAGVPLLAWPRGGDHRVNATVVVSGGVGVWMEQWSWDGEDWLVTGEEIGKKVKEVMSDAAVRARATRTGEEAAKAVAEGGTSYRSMQKFISSLKAHCSP
modifications: Sorghum bicolor

Assay: In vitro functional identification of C-glycosyltransferases by HPLC, phloretin as glycosyl receptor
Assay type: biochemical
Conditions: 0.1 mM phloretin, 0.3 mM UDP glucose, crude enzyme, 37° C., 2 h, HPLC (FIG. 1A)
Description: The recombinant plasmid was transformed into competent cells of Escherichia coli BL21 (DE3), and cultured overnight at 37° C. in solid LB medium (kanamycin 50 μg/mL). Single colony was transferred to a 2 mL LB liquid medium (containing 50 μg/ml kanamycin) and incubated overnight. The bacterial fluid was transferred to a new 100 ml LB liquid medium with antibiotics and incubated at 37° C. and 250 r/min until OD600 reached 0.5-0.6. The culture was cooled down to 16° C. in a water bath. Then inducer IPTG was added at a final concentration of 0.1 mM. The mixture was cultured at 16° C. for low temperature induction and 180 r/min for 20 h. The BL21(DE3) recombinant strain carrying the pET28a empty plasmid was used as a blank control, and the culture operation was the same as above. The bacteria were harvested by centrifugation (6000 r/min, 5 min), re-suspended in 1 mL of lysis buffer Buffer A (20 mM Tris-HCl, pH 8.0; 100 mM NaCl), and DNase was added to a final concentration of 5 μg/mL, Mg^2+ to a final concentration of 2 mM; protease inhibitor PMSF to a final concentration of 1 mM; the bacteria were incubated on ice for 30 min and then sonicated; refrigerated centrifugation (10,000 rpm, 30 min, 4° C.), filtered through a 0.2 µm filter membrane to obtain the supernatant crude enzyme solution, and added 20% glycerol for cryopreservation (−20° C.).
The in vitro enzyme catalytic assay system is 100 μL. The reaction system includes: 0.1 mM glycosyl receptor (phloretin or 2-hydroxynaringenin), 0.3 mM UDP glucose, 25 μL supernatant crude enzyme solution, and Buffer A is used to make up the volume to 100 μL, and react at 37° C. for 2 h. After the reaction was completed, an equal volume of methanol was added to terminate the reaction, and HPLC was used for product analysis. HPLC detection conditions: chromatographic column: reverse phase C18 column [SilGreen ODS column (ø 4.6×250 mm)], detection wavelength 280 nm; mobile phase: acetonitrile (0.1% formic acid)-water (0.1% formic acid) mixture gradient elution, with increased ratio from 5:95 to 100:0 within 0 to 20 min, and the flow rate was 1 mL/min.
For B1, the “conversion of substrate phloretin to C-glycosylated product (Nothofagin)” value (“conversion of substrate phloretin” below) was “can convert the substrate phloretin to a product having a shorter retention time”.
With B2 the “conversion of substrate phloretin” value was “can convert the substrate phloretin to a product having a shorter retention time”.
For B3, the “conversion of substrate phloretin” value was “can convert the substrate phloretin to a product having a shorter retention time”.
For B4, the “conversion of substrate phloretin” value was “can convert the substrate phloretin to a product having a shorter retention time”.
In the case of B5, the “conversion of substrate phloretin” value is reported as “can convert the substrate phloretin to a product having a shorter retention time”.
With B6 the “5′ C-glycosylation of 3′-glycosylated phloretin giving phloretin-3′,5′-C-diglucoside” value (shortened to “5′ C-glycosylation”) was “can catalyze the glycosylation of the 3′-glycosylated phloretin at the 5′ position” and the “conversion of substrate phloretin” value was “can convert the substrate phloretin to a product having a shorter retention time”.
With B7 the “5′ C-glycosylation” value was “can catalyze the glycosylation of the 3′-glycosylated phloretin at the 5′ position” and the “conversion of substrate phloretin” value was “can convert the substrate phloretin to a product having a shorter retention time”.
In the case of B8, the “5′ C-glycosylation” value is reported as “can catalyze the glycosylation of the 3′-glycosylated phloretin at the 5′ position” and the “conversion of substrate phloretin” value is reported as “can convert the substrate phloretin to a product having a shorter retention time”.
